Laboratory results published in patent publication US5942405A, “Therapeutic and screening methods using C3a receptor and C3a” (priority 1997, dated 1999).

T1: C3a Receptor (Homo sapiens, UniProt Q16581)
T1 sequence (Q16581 1-482 F151C): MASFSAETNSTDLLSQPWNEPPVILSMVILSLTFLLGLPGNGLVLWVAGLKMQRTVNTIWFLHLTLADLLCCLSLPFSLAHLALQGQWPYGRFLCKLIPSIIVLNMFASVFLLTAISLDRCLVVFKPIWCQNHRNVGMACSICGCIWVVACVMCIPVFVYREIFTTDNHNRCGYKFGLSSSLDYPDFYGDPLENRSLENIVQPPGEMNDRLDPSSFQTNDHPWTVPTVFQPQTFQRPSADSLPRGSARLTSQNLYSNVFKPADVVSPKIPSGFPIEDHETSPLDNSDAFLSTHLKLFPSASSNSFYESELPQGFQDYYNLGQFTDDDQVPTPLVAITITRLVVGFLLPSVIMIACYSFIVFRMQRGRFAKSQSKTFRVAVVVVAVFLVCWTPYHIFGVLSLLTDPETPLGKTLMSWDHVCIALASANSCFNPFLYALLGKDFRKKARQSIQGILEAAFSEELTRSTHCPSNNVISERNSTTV

B1: rC5a: Human rC5a was expressed in E. coli and purified to homogeneity (protein, UniProt P01031 678-751, looked up)
C5a anaphylatoxin: TLQKKIEEIAAKYKHSVVKKCCYDGACVNNDETCEQRAARISLGPRCIKAFTECCVVASQLRANISHKDMQLGR
modifications: C5a anaphylatoxin recombinant, E. coli
notes: Human rC5a was expressed in E. coli and purified to homogeneity

Tests used:
[1] = tested on: C5a-R; test: Calcium mobilization by Fura 2 loaded RBL-2H3 cells stably expressing C5a-R; assay type: cell-based, human; settings: RBL-2H3 cells expressing C5a-R, Fig. 4: rC5a 10 nM, C3a analogue peptide 1 uM
Method: (A) Electrophysiological response of Xenopus oocytes injected with cRNA for C3a Receptor (10 ng), total U937 RNA (25 ng), or a mixture of C3a Receptor (10 ng) and U937 RNA (25 ng) to 10 nM rC5a, 10 nM C3a analogue peptide, 10 nM platelet activating factor (PAF), 10 nM fMetLeuPhe. Inset, represents typical response of oocytes co-injected with C3a Receptor cRNA+U937 RNA to 10 nM C3a. (B) Electrophysiological response of oocytes injected with C5a-R cRNA (10 ng), U937 RNA (25 ng) or a mixture of C5a-R and U937 RNA, to 10 nM rC5a or 10 nM C3a analogue peptide. […] Calcium mobilization by Fura 2 loaded cells expressing C5a receptor (FIGS. 4A & 4C) or C3a Receptor (FIGS. 4B & 4D) in response to rC5a (10 nM, FIG. 4A or 100 nM, FIG. 4B) or C3a analogue peptide (1 uM, FIGS. 4C & 4D).
(§1) To prepare C3a Receptor for expression in mammalian cells, a 1.6 kb cDNA fragment was obtained by PCR amplification that encompassed the entire C3a Receptor open reading frame. This fragment was subcloned into KpnI/Hind III sites of the mammalian expression vector, pCDN (Aiyar, N., et al (1994) Mol. Cell. Bio. 131, 75-86). Oligonucleotide primers used for PCR amplification were 5'-GA AGT GGT ACC ATG GCG TC-3' (SEQ ID NO:4) and 5'-GC TCCAAGCTTTCACACAGTTG-3' (SEQ ID NO:5) (the translation start and stop codons are underlined). RBL-2H3 cells were electroporated with either C3a Receptor or C5a-R in the pCDN mamalian expression vector (Aiyar, N., et al (1994) Mol. Cell. Bio. 131, 75-86), exactly as described (DeMartino, J. A., et al (1994) J. Biol Chem. 269, 14446-14450). Individual G418 resistant (400 μg/ml) colonies were isolated and expanded. Clonal cell lines expressing either C3a Receptor or C5a-R were chosen for further functional and binding studies.
RBL-2H3 cells (Siraganian, R. P., et al (1982) Fed. Proc. 41, 30-34), a rat basophil cell line, when transfected with an expression plasmid encoding the C5a-R express receptors that are functionally active (DeMartino, J. A., et al (1994) J. Biol. Chem. 269, 14446-14450). RBL-2H3 cells were stably transfected with mammalian expression plasmids encoding the C5a-R or C3a Receptor and Fura 2 loaded cells were tested for a C5a or C3a induced mobilization of intracellular Ca^2+.
Fura 2 loaded clonal cell lines expressing C5a-R or C3a Receptor were assayed for functional response, Ca^2+ mobilization, as described (Saussy, D. L. Jr., et al (1989) J. Biol. Chem. 264, 19845-19855).

[2] = molecular target: T1, C3a Receptor; test: Whole cell 125I-C3a binding to C3a Receptor expressing RBL-2H3 cells (competition and saturation); parameters: cDNA encoding a complete orphan GPCR of 482 amino acids; expressed in transfected cells; settings: for IC50: RBL-2H3 cells expressing C3a Receptor, 1×10^6 cells; for IC50 / competition of 125I-C3a binding / specific binding (in words): 2.3 nM labelled C3a; for competition of 125I-C3a binding / specific binding (in words): cells expressing C3a Receptor
From the text: as §1
The C3a carboxy-terminal analogue synthetic peptide, [WWGKKYRASKLGLAR (SEQ ID NO:3)] was obtained from Bachem Bioscience, Inc., King of Prussia, Pa. C3a was purchased from Advanced Research Technologies, San Diego, Calif. Human rC5a was expressed in E. coli and purified to homogeneity. Other agonists were obtained from Sigma, St. Louis, MO. C3a was radioiodinated using IODOBEADS (Pierce, Rockford Ill.) to a specific activity of 100 Cilmmol. Increasing concentrations of cold competitor were added to 1×10^6 cells in the presence of ^125 -C3a (2.3 nM), and the assay was performed essentially as described (Klos, A., et al (1992) Biochemistry 31, 11274-11282).
C3a was radioiodinated and used in whole cell binding assays to further characterize C3a Receptor. […] Curiously, HEK 293 cells stably expressing C3a Receptor mRNA by Northern Blot, neither bound nor responded to C3a (data not shown).

Molecule | mobilization of intracellular Ca2+ (response in words) [1] | mobilization of intracellular Ca2+ (response in words) ([1]; listed as native human C3a) | IC50 [2] | competition of 125I-C3a binding / specific binding (in words) [2] | Bmax ([2]; saturation binding and Scatchard analysis, data not shown) | Kd ([2]; saturation binding and Scatchard analysis, single class of sites, data not shown)
C3a: C3a was purchased from Advanced Research Technologies, San Diego; anaphylatoxin; radioiodinated for binding | not C5a receptor bind and respond | not C5a-R expressing RBL-2H3 cells also responded | 3 nM | specifically bind | 32,000 receptors per cell | 0.3 nM
WWGKKYRASKLGLAR [C3a analogue synthetic peptide, reference compound] | no response |  | 155 nM | specifically bind |  | 
B1 | responded |  |  | not |  | 
